Reference: patent US20170190753A1 (LABORATOIRE FRANCAIS DU FRACTIONNEMENT ET DES …, published 2017)

B1: pCEP4-1NT4-16CT20 (other)
chain: EDCNELPPRRNTEILTGSWSDQTYPEGTQAIYKCRPGYRSLGNVIMVCRKGEWVALNPLRKCQKRPCGHPGDTPFGTFTLTGGNVFEYGVKAVYTCNEGYQLLGEINYRECDTDGWTNDIPICEVVKCLPVTAPENGKIVSSAMEPDREYHFGQAVRFVCNSGYKIEGDEEMHCSDDGFWSKEKPKCVEISCKSPDVINGSPISQKIIYKENERFQYKCNMGYEYSERGDAVCTESGWRPLPSCEEKSGASGCKSPPEISHGVVAHMSDSYQYGEEVTYKCFEGFGIDGPAIAKCLGEKWSHPPSCIKTDCLSLPSFENAIPMGEKKDVYKAGEQVTYTCATYYKMDGASNVTCINSRWTGRPTCRDTSCVNPPTVQNAYIVSRQMSKYPSGERVRYQCRSPYEMFGDEEVMCLNGNWTEPPQCKDSTGKCGPPPPIDNGDITSFPLSVYAPASSVEYQCQNLYQLEGNKRITCRNGQWSEPPKCLHPCVISREIMENYNIALRWTAKQKLYSRTGESVEFVCKRGYRLSSRSHTLRTTCWDGKLEYPTCAKRGGSGHHHHHH
B2: pCEP4-1NT7-14CT20 (other)
chain: EDCNELPPRRNTEILTGSWSDQTYPEGTQAIYKCRPGYRSLGNVIMVCRKGEWVALNPLRKCQKRPCGHPGDTPFGTFTLTGGNVFEYGVKAVYTCNEGYQLLGEINYRECDTDGWTNDIPICEVVKCLPVTAPENGKIVSSAMEPDREYHFGQAVRFVCNSGYKIEGDEEMHCSDDGFWSKEKPKCVEISCKSPDVINGSPISQKIIYKENERFQYKCNMGYEYSERGDAVCTESGWRPLPSCEEKSCDNPYIPNGDYSPLRIKHRTGDEITYQCRNGFYPATRGNTAKCTSTGWIPAPRCTLKPCDYPDIKHGGLYHENMRRPYFPVAVGKYYSYYCDEHFETPSGSYWDHIHCTQDGWSPAVPCLRKCYFPYLENGYNQNYGRKFVQGKSIDVACHPGYALPKAQTTVTCMENGWSPTPRCIRVKTGASGCPPPPQIPNSHNMTTTLNYRDGEKVSVLCQENYLIQEGEEITCKDGRWQSIPLCVEKIPCSQPPQIEHGTINSSRSSQESYAHGTKLSYTCEGGFRISEENETTCYMGKWSSPPQCEGLPCKSPPEISHGVVAHMSDSYQYGEEVTYKCFEGFGIDGPAIAKCLGEKWSHPPSCIKTDCLSLPSFENAIPMGEKKDVYKAGEQVTYTCATYYKMDGASNVTCINSRWTGRPTCRDTSCVNPPTVQNAYIVSRQMSKYPSGERVRYQCRSPYEMFGDEEVMCLNGNWTEPPQCKDSTGKCGPPPPIDNGDITSFPLSVYAPASSVEYQCQNLYQLEGNKRITCRNGQWSEPPKCLHPCVISREIMENYNIALRWTAKQKLYSRTGESVEFVCKRGYRLSSRSHTLRTTCWDGKLEYPTCAKRGGSGHHHHHH
B3: pCEP4-1NT8-11CT20 (other)
chain: EDCNELPPRRNTEILTGSWSDQTYPEGTQAIYKCRPGYRSLGNVIMVCRKGEWVALNPLRKCQKRPCGHPGDTPFGTFTLTGGNVFEYGVKAVYTCNEGYQLLGEINYRECDTDGWTNDIPICEVVKCLPVTAPENGKIVSSAMEPDREYHFGQAVRFVCNSGYKIEGDEEMHCSDDGFWSKEKPKCVEISCKSPDVINGSPISQKIIYKENERFQYKCNMGYEYSERGDAVCTESGWRPLPSCEEKSCDNPYIPNGDYSPLRIKHRTGDEITYQCRNGFYPATRGNTAKCTSTGWIPAPRCTLKPCDYPDIKHGGLYHENMRRPYFPVAVGKYYSYYCDEHFETPSGSYWDHIHCTQDGWSPAVPCLRKCYFPYLENGYNQNYGRKFVQGKSIDVACHPGYALPKAQTTVTCMENGWSPTPRCIRVKTCSKSSIDIENGFISESQYTYALKEKAKYQCKLGYVTADGETSGSITCGKDGWSAQPTCIKSGASGCGPPPELLNGNVKEKTKEEYGHSEVVEYYCNPRFLMKGPNKIQCVDGEWTTLPVCIVEESTCGDIPELEHGWAQLSSPPYYYGDSVEFNCSESFTMIGHRSITCIHGVWTQLPQCVAIDKLKKCKSSNLIILEEHLKNKKEFDHNSNIRYRCRGKEGWIHTVCINGRWDPEVNCSMAQIQLCPPPPQIPNSHNMTTTLNYRDGEKVSVLCQENYLIQEGEEITCKDGRWQSIPLCVEKIPCSQPPQIEHGTINSSRSSQESYAHGTKLSYTCEGGFRISEENETTCYMGKWSSPPQCEGLPCKSPPEISHGVVAHMSDSYQYGEEVTYKCFEGFGIDGPAIAKCLGEKWSHPPSCIKTDCLSLPSFENAIPMGEKKDVYKAGEQVTYTCATYYKMDGASNVTCINSRWTGRPTCRDTSCVNPPTVQNAYIVSRQMSKYPSGERVRYQCRSPYEMFGDEEVMCLNGNWTEPPQCKDSTGKCGPPPPIDNGDITSFPLSVYAPASSVEYQCQNLYQLEGNKRITCRNGQWSEPPKCLHPCVISREIMENYNIALRWTAKQKLYSRTGESVEFVCKRGYRLSSRSHTLRTTCWDGKLEYPTCAKRGGSGHHHHHH
B4: pCEP4-1NT4-19CT20 (other)
chain: EDCNELPPRRNTEILTGSWSDQTYPEGTQAIYKCRPGYRSLGNVIMVCRKGEWVALNPLRKCQKRPCGHPGDTPFGTFTLTGGNVFEYGVKAVYTCNEGYQLLGEINYRECDTDGWTNDIPICEVVKCLPVTAPENGKIVSSAMEPDREYHFGQAVRFVCNSGYKIEGDEEMHCSDDGFWSKEKPKCVEISCKSPDVINGSPISQKIIYKENERFQYKCNMGYEYSERGDAVCTESGWRPLPSCEEKSGASGCGPPPPIDNGDITSFPLSVYAPASSVEYQCQNLYQLEGNKRITCRNGQWSEPPKCLHPCVISREIMENYNIALRWTAKQKLYSRTGESVEFVCKRGYRLSSRSHTLRTTCWDGKLEYPTCAKRGGSGHHHHHH
B5: pCEP4-1NT7-8CT20 (other)
chain: EDCNELPPRRNTEILTGSWSDQTYPEGTQAIYKCRPGYRSLGNVIMVCRKGEWVALNPLRKCQKRPCGHPGDTPFGTFTLTGGNVFEYGVKAVYTCNEGYQLLGEINYRECDTDGWTNDIPICEVVKCLPVTAPENGKIVSSAMEPDREYHFGQAVRFVCNSGYKIEGDEEMHCSDDGFWSKEKPKCVEISCKSPDVINGSPISQKIIYKENERFQYKCNMGYEYSERGDAVCTESGWRPLPSCEEKSCDNPYIPNGDYSPLRIKHRTGDEITYQCRNGFYPATRGNTAKCTSTGWIPAPRCTLKPCDYPDIKHGGLYHENMRRPYFPVAVGKYYSYYCDEHFETPSGSYWDHIHCTQDGWSPAVPCLRKCYFPYLENGYNQNYGRKFVQGKSIDVACHPGYALPKAQTTVTCMENGWSPTPRCIRVKTGASGCSKSSIDIENGFISESQYTYALKEKAKYQCKLGYVTADGETSGSITCGKDGWSAQPTCIKSCDIPVFMNARTKNDFTWFKLNDTLDYECHDGYESNTGSTTGSIVCGYNGWSDLPICYERECELPKIDVHLVPDRKKDQYKVGEVLKFSCKPGFTIVGPNSVQCYHFGLSPDLPICKEQVQSCGPPPELLNGNVKEKTKEEYGHSEVVEYYCNPRFLMKGPNKIQCVDGEWTTLPVCIVEESTCGDIPELEHGWAQLSSPPYYYGDSVEFNCSESFTMIGHRSITCIHGVWTQLPQCVAIDKLKKCKSSNLIILEEHLKNKKEFDHNSNIRYRCRGKEGWIHTVCINGRWDPEVNCSMAQIQLCPPPPQIPNSHNMTTTLNYRDGEKVSVLCQENYLIQEGEEITCKDGRWQSIPLCVEKIPCSQPPQIEHGTINSSRSSQESYAHGTKLSYTCEGGFRISEENETTCYMGKWSSPPQCEGLPCKSPPEISHGVVAHMSDSYQYGEEVTYKCFEGFGIDGPAIAKCLGEKWSHPPSCIKTDCLSLPSFENAIPMGEKKDVYKAGEQVTYTCATYYKMDGASNVTCINSRWTGRPTCRDTSCVNPPTVQNAYIVSRQMSKYPSGERVRYQCRSPYEMFGDEEVMCLNGNWTEPPQCKDSTGKCGPPPPIDNGDITSFPLSVYAPASSVEYQCQNLYQLEGNKRITCRNGQWSEPPKCLHPCVISREIMENYNIALRWTAKQKLYSRTGESVEFVCKRGYRLSSRSHTLRTTCWDGKLEYPTCAKRGGSGHHHHHH
B6: pCEP4-1NT9-11CT20 (other)
chain: EDCNELPPRRNTEILTGSWSDQTYPEGTQAIYKCRPGYRSLGNVIMVCRKGEWVALNPLRKCQKRPCGHPGDTPFGTFTLTGGNVFEYGVKAVYTCNEGYQLLGEINYRECDTDGWTNDIPICEVVKCLPVTAPENGKIVSSAMEPDREYHFGQAVRFVCNSGYKIEGDEEMHCSDDGFWSKEKPKCVEISCKSPDVINGSPISQKIIYKENERFQYKCNMGYEYSERGDAVCTESGWRPLPSCEEKSCDNPYIPNGDYSPLRIKHRTGDEITYQCRNGFYPATRGNTAKCTSTGWIPAPRCTLKPCDYPDIKHGGLYHENMRRPYFPVAVGKYYSYYCDEHFETPSGSYWDHIHCTQDGWSPAVPCLRKCYFPYLENGYNQNHGRKFVQGKSIDVACHPGYALPKAQTTVTCMENGWSPTPRCIRVKTCSKSSIDIENGFISESQYTYALKEKAKYQCKLGYVTADGETSGSITCGKDGWSAQPTCIKSCDIPVFMNARTKNDFTWFKLNDTLDYECHDGYESNTGSTTGSIVCGYNGWSDLPICYEREGASGCGPPPELLNGNVKEKTKEEYGHSEVVEYYCNPRFLMKGPNKIQCVDGEWTTLPVCIVEESTCGDIPELEHGWAQLSSPPYYYGDSVEFNCSESFTMIGHRSITCIHGVWTQLPQCVAIDKLKKCKSSNLIILEEHLKNKKEFDHNSNIRYRCRGKEGWIHTVCINGRWDPEVNCSMAQIQLCPPPPQIPNSHNMTTTLNYRDGEKVSVLCQENYLIQEGEEITCKDGRWQSIPLCVEKIPCSQPPQIEHGTINSSRSSQESYAHGTKLSYTCEGGFRISEENETTCYMGKWSSPPQCEGLPCKSPPEISHGVVAHMSDSYQYGEEVTYKCFEGFGIDGPAIAKCLGEKWSHPPSCIKTDCLSLPSFENAIPMGEKKDVYKAGEQVTYTCATYYKMDGASNVTCINSRWTGRPTCRDTSCVNPPTVQNAYIVSRQMSKYPSGERVRYQCRSPYEMFGDEEVMCLNGNWTEPPQCKDSTGKCGPPPPIDNGDITSFPLSVYAPASSVEYQCQNLYQLEGNKRITCRNGQWSEPPKCLHPCVISREIMENYNIALRWTAKQKLYSRTGESVEFVCKRGYRLSSRSHTLRTTCWDGKLEYPTCAKRGGSGHHHHHH

The binders below were run against C3 convertase complex (UniProt P01024 23-1663; P00751 260-764) (assay: cell-based or functional assay).
For C3 convertase activity % of the control in this document: test concentration or dose not given here.

Sequence of C3 convertase complex (P01024 23-1663, chain 1 of 2): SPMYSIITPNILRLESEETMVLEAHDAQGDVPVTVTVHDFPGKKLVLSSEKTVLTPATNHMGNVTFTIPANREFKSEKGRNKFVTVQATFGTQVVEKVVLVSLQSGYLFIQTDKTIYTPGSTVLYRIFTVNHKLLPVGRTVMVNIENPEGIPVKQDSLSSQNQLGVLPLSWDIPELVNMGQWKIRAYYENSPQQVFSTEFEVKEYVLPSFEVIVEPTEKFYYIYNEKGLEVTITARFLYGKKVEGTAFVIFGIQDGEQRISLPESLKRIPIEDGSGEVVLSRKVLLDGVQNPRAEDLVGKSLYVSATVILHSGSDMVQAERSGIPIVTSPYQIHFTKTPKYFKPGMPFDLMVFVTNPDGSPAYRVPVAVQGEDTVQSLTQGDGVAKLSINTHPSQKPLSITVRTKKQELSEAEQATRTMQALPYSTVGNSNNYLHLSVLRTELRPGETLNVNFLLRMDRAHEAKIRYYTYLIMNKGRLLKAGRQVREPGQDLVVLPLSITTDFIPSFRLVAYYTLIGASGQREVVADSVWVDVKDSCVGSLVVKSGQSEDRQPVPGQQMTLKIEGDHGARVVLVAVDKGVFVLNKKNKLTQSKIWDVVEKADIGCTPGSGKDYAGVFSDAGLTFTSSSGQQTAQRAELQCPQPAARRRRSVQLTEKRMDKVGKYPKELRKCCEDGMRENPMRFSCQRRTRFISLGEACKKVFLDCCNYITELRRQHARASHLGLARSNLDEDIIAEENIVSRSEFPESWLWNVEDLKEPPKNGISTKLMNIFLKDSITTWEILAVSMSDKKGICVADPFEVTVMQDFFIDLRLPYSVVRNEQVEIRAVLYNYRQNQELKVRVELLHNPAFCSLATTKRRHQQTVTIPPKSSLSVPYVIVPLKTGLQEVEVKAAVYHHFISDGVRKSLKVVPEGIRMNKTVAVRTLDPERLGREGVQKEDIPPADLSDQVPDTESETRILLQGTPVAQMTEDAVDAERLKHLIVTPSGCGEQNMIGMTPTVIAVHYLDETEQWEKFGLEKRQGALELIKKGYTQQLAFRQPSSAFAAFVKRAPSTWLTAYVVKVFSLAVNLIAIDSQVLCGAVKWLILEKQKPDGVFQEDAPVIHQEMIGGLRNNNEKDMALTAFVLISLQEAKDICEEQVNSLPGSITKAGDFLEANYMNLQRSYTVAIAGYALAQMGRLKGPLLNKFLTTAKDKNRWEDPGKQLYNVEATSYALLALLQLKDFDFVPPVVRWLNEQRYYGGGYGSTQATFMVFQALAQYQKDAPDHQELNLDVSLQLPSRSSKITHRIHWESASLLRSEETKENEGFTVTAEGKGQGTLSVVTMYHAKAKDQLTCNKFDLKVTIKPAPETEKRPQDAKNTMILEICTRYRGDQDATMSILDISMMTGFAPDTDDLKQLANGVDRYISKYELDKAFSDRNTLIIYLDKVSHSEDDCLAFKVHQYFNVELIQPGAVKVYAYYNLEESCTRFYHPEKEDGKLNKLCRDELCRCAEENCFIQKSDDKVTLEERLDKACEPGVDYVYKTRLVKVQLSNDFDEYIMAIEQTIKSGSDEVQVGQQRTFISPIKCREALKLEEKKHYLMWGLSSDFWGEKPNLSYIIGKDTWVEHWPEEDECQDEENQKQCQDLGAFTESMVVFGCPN
Sequence of C3 convertase complex (P00751 260-764, chain 2 of 2): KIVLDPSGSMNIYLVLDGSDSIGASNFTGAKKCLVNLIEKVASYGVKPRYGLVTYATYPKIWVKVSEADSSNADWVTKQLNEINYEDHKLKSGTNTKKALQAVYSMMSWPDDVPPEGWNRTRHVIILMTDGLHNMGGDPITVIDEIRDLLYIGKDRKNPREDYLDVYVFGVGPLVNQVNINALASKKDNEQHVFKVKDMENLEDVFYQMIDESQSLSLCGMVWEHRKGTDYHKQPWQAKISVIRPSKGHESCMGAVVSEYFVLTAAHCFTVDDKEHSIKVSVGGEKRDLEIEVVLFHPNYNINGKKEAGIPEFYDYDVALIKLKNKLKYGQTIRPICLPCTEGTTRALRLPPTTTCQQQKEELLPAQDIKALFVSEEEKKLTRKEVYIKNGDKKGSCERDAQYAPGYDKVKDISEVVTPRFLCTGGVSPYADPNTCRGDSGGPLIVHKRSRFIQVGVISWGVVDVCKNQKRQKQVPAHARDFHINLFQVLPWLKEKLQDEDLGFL

Point of comparison: B2, “C3 convertase activity % of the control” value 104 % of the control. Against it:
- B1 — higher, 239 % of the control
- B3 — lower, 77 % of the control
- B4 — lower, 73 % of the control
- B5 — lower, 72 % of the control
- B6 — lower, 69 % of the control

Point of comparison: B3, “C3 convertase activity IC50” value 0.471 µg/mL. Against it:
- B1 — 17-fold lower, 0.0281 µg/mL
- B2 — 7.3-fold lower, 0.0645 µg/mL
- B4 — 5.1-fold lower, 0.0916 µg/mL
- B5 — within 1.5-fold, 0.542 µg/mL
- B6 — 2.7-fold lower, 0.172 µg/mL
